Reference: US20030186281A1, “Modified tetracycline repressor protein compositions and methods of use” (priority 2001, published 2003)

Test system: tet operator sequence
Test: β-galactosidase activity of a tetracycline-regulated promoter in transformed E. coli with revTetR, in the presence and absence of anhydrotetracycline (atc)
Type: cell-based, Escherichia coli
Conditions: for β-Galactosidase Activity, Cultured Without ATC: RevTetR isolate cultured in the absence of anhydrotetracycline (ATC); for β-Galactosidase Activity, Cultured With ATC: RevTetR isolate cultured in the presence of anhydrotetracycline (ATC)
Procedure: The relative activity of revTetR repressors was determined at 28° C. and 37° C. for each clone by measuring β-galactosidase activity of a tetracycline-regulated promoter in transformed Escherichia coli in the presence and absence of the tetracycline analog, anhydrotetracycline (atc). The relative β-galactosidase activity was measured in standard Miller units and is presented as the percent of maximal expression as measured in the absence of Tet repressor. […] With respect to each mutant, as well as the wild-type controls, FIG. 2 provides two horizontal bars; the upper horizontal bar represents the level of β-galactosidase activity in the absence of anhydrotetracycline (−atc) while the lower horizontal bar represents the level of β-galactosidase activity in the presence of anhydrotetracycline (+atc).
The pool of mutated Tet repressors was cloned into plasmid pWH1411 (Baumeister et al., 1992, Proteins: Struct. Funct. Genet. 14: 168-77), which carries a TetR(B) gene, to provide a TetR(BD) chimera that included, as the amino-terminal portion, amino acid residues 1 to 50 of the TetR(B) gene and, as the carboxyl-terminal portion, amino acid residues 51 to 208 of the TetR(D) gene. The resulting plasmid pool was screened in a genetic assay which positively selects for a functional interaction between a Tet repressor and its cognate operator using E. coli strain WH207(λWH25) (the construction of this strain is described in detail in Wissmann et al., (1991) Genetics 128: 225-32). In this E. coli strain, tet operators direct the expression of divergently arranged β-galactosidase (lacZ) and Lac repressor (lacI) genes and the lac regulatory region directs the expression of a galactokinase (galK) gene on plasmid pWH414. Binding of Tet repressors to tet operators turns off transcription of the lacI and lacZ genes. The absence of Lac repressor allows for expression of the galK gene, which enables the E. coli strain to use galactose as a sole carbon source, which serves as one marker. The lacZ^− phenotype serves as a second marker. Thus, bacteria containing Tet repressors which bind to tet operators, have a Gal^+, lacZ^− phenotype. Bacteria containing wild-type Tet repressors have a Gal^+, lacZ^− phenotype in the absence of tetracycline. Modified “reverse” Tet repressors (revTetR) were selected based upon a Gal^+, lacZ^− phenotype in the presence of tetracycline.
The ability of each revTetR clone to bind to its cognate tet operator sequence and regulate transcription in a prokaryotic organism, Escherichia coli, in the presence and absence of a tetracycline analog (anhydrotetracycline, atc) was determined (Table 3, FIG. 2). The relative ratios of non-repressed to repressed levels of transcription for the 15 clones range from about 1.4-fold to about 50-fold at 28° C. and from about 1.3-fold to 40-fold at 37° C. For example, clone 4b comprising an amino acid substitution of glutamic acid for glycine at position 96 (e.g., SEQ ID NO. 24) repressed transcription 19-fold at 37° C. but to a less extent at 28° C. (5.7-fold, Table 3). Furthermore, clones 14, 5a and 7 comprising the arginine for glycine substitution at position 96 and further comprising a substitution or substitutions of serine for threonine at position 103 and valine for glutamic acid at position 114; leucine for proline at position 159; or glutamine to histidine at position 188, respectively, have pronouncedly different activities.
wherein each underlined base was present in approximately 85% of the oligonucleotides, while the remaining approximately 15% of the oligonucleotides contained one of the other three, non-wild type bases at that position. Similar mutagenic, partially randomized oligonucleotides were prepared for mutagenesis of the coding regions for amino acids 14-25 and 93-102. It was predicted that, according to a binomial distribution, each oligonucleotide would contain three to four mutations. […]

Molecule	β-Galactosidase Activity, Cultured Without ATC	β-Galactosidase Activity, Cultured With ATC
TetRrevAF6/12: revTetR(BD) L14F E15E G96V K98E V99L L101P (protein, Modified tetracycline repressor, revTetR(BD) L14F E15E G96V K98E V99L L101P) MSRLDKSKVINSAFELLNEVGIEGLTTRKLAQKLGVEQPTLYWHVKNKRALLDALAVEILARHHDYSLPAAGESWQSFLRNNAMSFRRALLRYRDVAELHPGTRPDEKQYDTVETQLRFMTENGFSLRDGLYAISAVSHFTLGAVLEQQEHTAALTDRPAAPDENLPPLLREALQIMDSDDGEQAFLHGLESLIRGFEVQLTALLQIV	82.6734	1.3259
TetRrevAF2/14: revTetR(BD) L14L E15A L16L L17V N18N; V20V G96V (protein, Modified tetracycline repressor, revTetR(BD) L14L E15A L16L L17V N18N; V20V G96V) MSRLDKSKVINSALALVNEVGIEGLTTRKLAQKLGVEQPTLYWHVKNKRALLDALAVEILARHHDYSLPAAGESWQSFLRNNAMSFRRALLRYRDVAKVHLGTRPDEKQYDTVETQLRFMTENGFSLRDGLYAISAVSHFTLGAVLEQQEHTAALTDRPAAPDENLPPLLREALQIMDSDDGEQAFLHGLESLIRGFEVQLTALLQIV	90.5688	1.239
TetRrevAtc4-11: revTetR(BD) L55L A56P R62S (protein, Modified tetracycline repressor, revTetR(BD) L55L A56P R62S) MSRLDKSKVINSALELLNEVGIEGLTTRKLAQKLGVEQPTLYWHVKNKRALLDALPVEILASHHDYSLPAAGESWQSFLRNNAMSFRRALLRYRDGAKVHLGTRPDEKQYDTVETQLRFMTENGFSLRDGLYAISAVSHFTLGAVLEQQEHTAALTDRPAAPDENLPPLLREALQIMDSDDGEQAFLHGLESLIRGFEVQLTALLQIV	103.132	17.479
TetRrevAD3/6: revTetR(BD) V20G A56P I59L R62R (protein, Modified tetracycline repressor, revTetR(BD) V20G A56P I59L R62R) MSRLDKSKVINSALELLNEGGIEGLTTRKLAQKLGVEQPTLYWHVKNKRALLDALPVELLARHHDYSLPAAGESWQSFLRNNAMSFRRALLRYRDGAKVHLGTRPDEKQYDTVETQLRFMTENGFSLRDGLYAISAVSHFTLGAVLEQQEHTAALTDRPAAPDENLPPLLREALQIMDSDDGEQAFLHGLESLIRGFEVQLTALLQIV	93.0552	1.6494
TetRrevAD3/8: revTetR(BD) L16L A56A V57E E58L I59N L60A (protein, Modified tetracycline repressor, revTetR(BD) L16L A56A V57E E58L I59N L60A) MSRLDKSKVINSALELLNEVGIEGLTTRKLAQKLGVEQPTLYWHVKNKRALLDALAELNVARHHDYSLPAAGESWQSFLRNNAMSFRRALLRYRDGAKVHLGTRPDEKQYDTVETQLRFMTENGFSLRDGLYAISAVSHFTLGAVLEQQEHTAALTDRPAAPDENLPPLLREALQIMDSDDGEQAFLHGLESLIRGFEVQLTALLQIV	65.0174	1.9046
TetRrevAF2/16: revTetR(BD) E19V Y93C D95Y A97T K98N V99L L101L (protein, Modified tetracycline repressor, revTetR(BD) E19V Y93C D95Y A97T K98N V99L L101L) MSRLDKSKVINSALELLNVVGIEGLTTRKLAQKLGVEQPTLYWHVKNKRALLDALAVEILARHHDYSLPAAGESWQSFLRNNAMSFRRALLRCRYGTNLHLGTRPDEKQYDTVETQLRFMTENGFSLRDGLYAISAVSHFTLGAVLEQQEHTAALTDRPAAPDENLPPLLREALQIMDSDDGEQAFLHGLESLIRGFEVQLTALLQIV	90.6438	2.622
TetRrevAF7/2: revTetR(BD) L14V E15V E23D K48K G96L G102A (protein, Modified tetracycline repressor, revTetR(BD) L14V E15V E23D K48K G96L G102A) MSRLDKSKVINSAVVLLNEVGIDGLTTRKLAQKLGVEQPTLYWHVKNKRALLDALAVEILARHHDYSLPAAGESWQSFLRNNAMSFRRALLRYRDLAKVHLATRPDEKQYDTVETQLRFMTENGFSLRDGLYAISAVSHFTLGAVLEQQEHTAALTDRPAAPDENLPPLLREALQIMDSDDGEQAFLHGLESLIRGFEVQLTALLQIV	58.8637	3.7321
TetRrevAF2/15: revTetR(BD) V20G I22N R49Q A50T (protein, Modified tetracycline repressor, revTetR(BD) V20G I22N R49Q A50T) MSRLDKSKVINSALELLNEGGNEGLTTRKLAQKLGVEQPTLYWHVKNKQTLLDALAVEILARHHDYSLPAAGESWQSFLRNNAMSFRRALLRYRDGAKVHLGTRPDEKQYDTVETQLRFMTENGFSLRDGLYAISAVSHFTLGAVLEQQEHTAALTDRPAAPDENLPPLLREALQIMDSDDGEQAFLHGLESLIRGFEVQLTALLQIV	82.5755	2.828
TetRrevAF7/1: revTetR(BD) Y93C G96R K98N (protein, Modified tetracycline repressor, revTetR(BD) Y93C G96R K98N) MSRLDKSKVINSALELLNEVGIEGLTTRKLAQKLGVEQPTLYWHVKNKRALLDALAVEILARHHDYSLPAAGESWQSFLRNNAMSFRRALLRCRDRANVHLGTRPDEKQYDTVETQLRFMTENGFSLRDGLYAISAVSHFTLGAVLEQQEHTAALTDRPAAPDENLPPLLREALQIMDSDDGEQAFLHGLESLIRGFEVQLTALLQIV	89.3536	1.3792
TetRrevAD3/7: revTetR(BD) L17M E19D L52L D53Y A54A A56E (protein, Modified tetracycline repressor, revTetR(BD) L17M E19D L52L D53Y A54A A56E) MSRLDKSKVINSALELMNDVGIEGLTTRKLAQKLGVEQPTLYWHVKNKRALLYALEVEILARHHDYSLPAAGESWQSFLRNNAMSFRRALLRYRDGAKVHLGTRPDEKQYDTVETQLRFMTENGFSLRDGLYAISAVSHFTLGAVLEQQEHTAALTDRPAAPDENLPPLLREALQIMDSDDGEQAFLHGLESLIRGFEVQLTALLQIV	73.4537	2.4531
TetRrevAD3/5: revTetR(BD) L17L N18K E19V I22T 53Y A54S (protein, Modified tetracycline repressor, revTetR(BD) L17L N18K E19V I22T 53Y A54S) MSRLDKSKVINSALELLKVVGTEGLTTRKLAQKLGVEQPTLYWHVKNKRALLYSLAVEILARHHDYSLPAAGESWQSFLRNNAMSFRRALLRYRDGAKVHLGTRPDEKQYDTVETQLRFMTENGFSLRDGLYAISAVSHFTLGAVLEQQEHTAALTDRPAAPDENLPPLLREALQIMDSDDGEQAFLHGLESLIRGFEVQLTALLQIV	89.8129	1.1481
